{"source": "the supplement of paper PMC12636428", "data": [{"system": "Saccharomyces cerevisiae", "test": "transcriptional activation domain activity (GFP:mCherry ratio, weighted mean of sorted bins, harmonized to initial dataset scale) (arbitrary fluorescence ratio units); higher = stronger transcriptional activation", "details": "beta-estradiol 1 µM; induction time 4 h", "outline": "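Barcoded tiles were sequenced after cells were sorted into 8 bins by GFP:mCherry ratio. Before sorting, cultures had been diluted 1:5 into SC with 1 uM beta-estradiol and held for 4 hours at 30 °C. The tiles were fused to an estradiol-inducible synthetic transcription factor and integrated at URA3 in yeast diploids carrying a GFP reporter. Activation activity is the read-weighted mean of bin median fluorescence, averaged over barcodes and linearly mapped onto the initial dataset scale, and tiles under 50 reads were left out.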", "values": [{"sequence": "GGRKRRKEREQQRERPDEEQSRPGSRDDEEGEKEGRGKGTKARKGAGGAAGKG", "transcriptional activation domain activity": 27600}, {"sequence": "KSKSSRSSRRREGEEDDDRRRRRHRHRSRSHSRGRDGDNDDPKEKRRSRRHDD", "transcriptional activation domain activity": 38400}, {"sequence": "FCYVVVLGRVLIRFGGYQVLTLWRSCMRRLPKLGDSIWSRVFLRCVSCMSLFL", "transcriptional activation domain activity": 62000}, {"sequence": "MRFWFLYLFLLFGIGWVGLALLYYYRIFCLFLCNIRILFLLVCFISTHSIIYS", "transcriptional activation domain activity": 46200}, {"sequence": "LFYNQVSKLLIINCYEASYMCVIYTVGSIGNIGSRCQNLRTGSTFKTLVKYID", "transcriptional activation domain activity": 54000}, {"sequence": "ENHPPGVAAQILIARISWILWHSVEQIRITVWVVGRKFMMVLLQGTVPRISVR", "transcriptional activation domain activity": 71600}, {"sequence": "MSTAAVNEVTETLAATAISNPTNGAAANEATAASADEGRRLYIGNLAYATTEG", "transcriptional activation domain activity": 36000}, {"sequence": "IVITCLPVTLLLFGKMVDVLDDYYLGIFELVLLFFAFYIFPIFYIFARVILLV", "transcriptional activation domain activity": 53800}, {"sequence": "YQWVNYDLDTICMNFWTLKFLPDELPPIKHFSVVANDCKLFMYNVMGIIRFMS", "transcriptional activation domain activity": 82700}, {"sequence": "MCSILPTVCNQYLIFLSFVSCPSMLYLISYFFLMWSFFSLHNWFFCWVPCCVL", "transcriptional activation domain activity": 52700}, {"sequence": "GSERRERRSERRRSRDRSGERRRSKREEGSSRRPQSPEDEDRQQRRHRRHRHR", "transcriptional activation domain activity": 16500}, {"sequence": "PLVVTALCVAPHEFFMKNWVSCFEVGLVKLKEKPYRMIVMNGMMRLIWTYLYR", "transcriptional activation domain activity": 52800}, {"sequence": "MPQTAGQAVWHFILSLLYYQFVPFHIRRFIFSCFPLPVNIPTLFVFLNVLFFW", "transcriptional activation domain activity": 51600}, {"sequence": "MSDWEEKWSKSRNRPYYFNKTTNESVWDKPDGFDGPAAKPPGSEGKVRASHLL", "transcriptional activation domain activity": 38300}, {"sequence": "TFLLLSMPALLLLFSALGVCFLLSTSGLFFLSTSGFFFLLTTSGFFFFLFFML", "transcriptional activation domain activity": 37100}, {"sequence": "QCYNYLRVILMVSVGQGLARSVHWCMFLYQQGLDYVLWYYRNTLLLVSFLIGW", "transcriptional activation domain activity": 62200}, {"sequence": "MVAAATARTRRAATVATRRTRPVVMAMAVVVATRNRRATTRAAGIRQAGIRRV", "transcriptional activation domain activity": 45900}, {"sequence": "VSVSLIFFTCFLSLSLFFCVLVRVSWLSVPVPSIVFFWISFLLFCPFFPFSFF", "transcriptional activation domain activity": 35700}, {"sequence": "TPIDVETDDPDIYIKPALDGSLNLLTSIVRYGQVIRGLSSCIIHLFNNVHLVR", "transcriptional activation domain activity": 43000}, {"sequence": "ANLYVVLTLYSYTWIQVLIVSLSILLYFVFIAIYSQFNTFIFAGHIRLFGNGL", "transcriptional activation domain activity": 57500}, {"sequence": "AAAPAAAANDGTTKKKGKGQKATRSPKGKGKSKKKGKGAAAAAAAPAAAKAVS", "transcriptional activation domain activity": 14600}, {"sequence": "LHSFRRQNGFIRLNIWDLNPSPKILQLYLLTQTIKRYIVLCLLLNLGFTIAQC", "transcriptional activation domain activity": 60700}, {"sequence": "LVGALGPPGGLYSSSAGDTQERRRRREGERALKGFEVGDKWAGEVARRLRRTA", "transcriptional activation domain activity": 60100}, {"sequence": "LLLLPVSFLVLSGIYSPFILILFDSPWPVLYVLIYFPLCYFVLSPYIIFALSP", "transcriptional activation domain activity": 51200}, {"sequence": "NRKTIGKQDPYCAARLGKEAKKTDTDRRGGQTPRWDQELRYTVHDSPDYYQLK", "transcriptional activation domain activity": 33300}, {"sequence": "GRHFLAGVLEGLPYVMPLFAPTVNSYKRLVENFWAPVTVSWGLEHRIASIRLI", "transcriptional activation domain activity": 32600}, {"sequence": "MACLFPCMLIFIFLLFISSFFLCFFHSLVSHLPHCVLVLFFISFLLTILTFFF", "transcriptional activation domain activity": 50200}, {"sequence": "HERLKLCNYQQAPDNIWCQYWFMGSFLVFFSNLDAVIDLPVMILLDLMPQICF", "transcriptional activation domain activity": 44100}, {"sequence": "YLVHAGVTQDFSLIGRKGVYSLGELEEIRHWVHQALLHCRLLLVCRKALQLVY", "transcriptional activation domain activity": 71800}, {"sequence": "MFSHFNSSDLTSTFFFFMPVLGFILCPFFLLESMVCALVGWPCFLLSYCLPCL", "transcriptional activation domain activity": 68900}, {"sequence": "LLVRIIGRCGFLGASFQVALLSDYISIMTLHIYWFYAVAARIYFWQLSILHSL", "transcriptional activation domain activity": 43100}, {"sequence": "AAGAAAPAKAAPAGARKARKGAAAAAPAAAPAAGAAPAQGAAAKKGGRLGGAA", "transcriptional activation domain activity": 30000}, {"sequence": "STTYYVLSLITFSSFPSIMVSYYSLLFSFFFISLCFLFPLPFVSSLFSHLILF", "transcriptional activation domain activity": 40300}, {"sequence": "ALKALSFARLLVIAVLMDSFLFVFTSAILVIGIGTSFNQIACQVGIWWCIFLY", "transcriptional activation domain activity": 58400}, {"sequence": "RGYDIAKVSNSADLVSWVIAWLLCNNPHIVFIHFGFSYDILVLAAHALHILDC", "transcriptional activation domain activity": 38500}, {"sequence": "MFIFLFFIHLLSHLCFILILILLFSILLFYVPVICLSTFFILFYHHHLLCTHQ", "transcriptional activation domain activity": 32200}, {"sequence": "SFMWVLVWLLVHIFKKFATITVDSATINRLARAFSSFDTGTVLTKEVILRLWR", "transcriptional activation domain activity": 52100}, {"sequence": "RLRVWELGRNSWTVYKFNPDLFPFIDVYPWPRICRLLKCLVFVFRYLEIIRPL", "transcriptional activation domain activity": 51800}, {"sequence": "MISPFHFQSLFFILFLLFFLCAWCSGWAGLRFFTPHLVSIFFLFMDWQLDLVG", "transcriptional activation domain activity": 48500}, {"sequence": "FLDLVLPHVGRWSDFVAYIPGVTVVEVNYLLRRLGSPKCGPALLLEKLHLFFF", "transcriptional activation domain activity": 54400}, {"sequence": "SSAAAGSSGNASRAAMDVDGEVDADADENRRRSTRASAGRKKAGSAVKKAGTG", "transcriptional activation domain activity": "< 6570"}, {"sequence": "LLRAYGRCLAPFPELVTQAYTWFRSWGTSEFRPLTVALLLVTYMQRSPEIKAP", "transcriptional activation domain activity": 70700}, {"sequence": "EDEEETAAARSTSKRTRRGRVLDDSDEEDDEAGTVSPAKAATGAESEGEAGAA", "transcriptional activation domain activity": 30000}, {"sequence": "MQSKAFSFLLSHISLIGFFFTFYEVLLLQFWFLFSLIFIPSYLLMLIVHLFLL", "transcriptional activation domain activity": 49000}, {"sequence": "MGLTVFSILYIPLNIIPPFFCCCLYIYHCFSFFSSTFILFFFFFGTVFAQVIL", "transcriptional activation domain activity": 53200}, {"sequence": "FWFPNYIFGALSFFSWMSWIAPTNINLANITGSSTGLGLNPFSSFDWNVWTFN", "transcriptional activation domain activity": 51400}, {"sequence": "KLGVCLLLILDSLHTTFCIYAMYWYLVINFGVFPELAMMHWSFEAQQMLNVLV", "transcriptional activation domain activity": 37800}, {"sequence": "AMAEKAAEEKPAAKKRGRPPKGPTMVEVVVEAPPAKKRGRPAKEDGAAAAATA", "transcriptional activation domain activity": 20000}, {"sequence": "AAARAPHVAPAPPDARPKSKKRKSSSPDDGRAPAKSRRLSPARAAPAKPKHRR", "transcriptional activation domain activity": 12300}, {"sequence": "SFKPAPAPAAEEAPKTEETPAPAETEAAAEEAKPAEEPKKEEVKEEPKRRSAS", "transcriptional activation domain activity": 35500}, {"sequence": "FYFICLFFILYFVFIFMFVFHMFVFYFLCFFLCLIYFLLVYFDICFLSLYLFF", "transcriptional activation domain activity": 42600}, {"sequence": "DEPTTDEKKVEETAVAVANLSVEGKKDEKKEEATLSDDKKTEAATEAVAAAPV", "transcriptional activation domain activity": 10100}, {"sequence": "MYIPPQSSVFLDIDSWGLIPVTCHLWLVMRWMYEAVMLPYLSQDGRHIVKFRY", "transcriptional activation domain activity": 40700}, {"sequence": "PAPTGDSPKKEKKRKRESAVAEDAPAAAEAEEADEPEKKKKKKKKHAEAEGAN", "transcriptional activation domain activity": 23700}, {"sequence": "SEEETSRSRSSKKHAISSGSDSDRDSRKVRKSRHSSSDEERYQKSHKSSSRRR", "transcriptional activation domain activity": 52400}, {"sequence": "ARVQVNFWFFLFVYYGFYNLTALIWITKVFNLYSLNWWPSMLGFPLTISLIAI", "transcriptional activation domain activity": 75700}, {"sequence": "ADEEDADEEDADEEDAGEKDAGEKDAGEEGAGEEDAGEEDASAIDAAACRMVQ", "transcriptional activation domain activity": 29800}, {"sequence": "AGDMGIERTGVDLHNGKHPLNALLKAIVGKLHLPLYFHWGPLNIGSCFSIPYA", "transcriptional activation domain activity": 50300}, {"sequence": "GAEGAGAPGGAPPQLKKPKKHHKKKHHKKHGHRGGKHKHGKKGKWGKKGKKGL", "transcriptional activation domain activity": 15100}, {"sequence": "MLCIPFCVLFCVVMGLINYGAFVDPCFLSFYVLLSTLLQLPSSFLPFFLFLPP", "transcriptional activation domain activity": 66900}, {"sequence": "TLELFKLKLVRPASKVYHMGGCAELWGFLVMQNHFRDGEGGHFNSITIDVKWA", "transcriptional activation domain activity": 59800}, {"sequence": "NISTSVYVLLVCFHPLFLLLLLLLLLLLLLYRFVFAFFFISFFFFFLLLLLLL", "transcriptional activation domain activity": 25000}, {"sequence": "MFGICTYSIPFLYFPPIPFVSYVSTLYFFVSHSISFHYLYIYCSIHLPFFLFI", "transcriptional activation domain activity": 69000}, {"sequence": "FFFSFFFFLFLFLFHLRFFPLTFVPFFIPCLLLLSSSLLLCCVVWYLFMRLFS", "transcriptional activation domain activity": 46700}, {"sequence": "AATAEPEKKKGSKKDKAAAAPAPAAAPAKDAKSAKKAKKSAAPPPPPPAASSS", "transcriptional activation domain activity": 15600}, {"sequence": "FPPLFVSPLRLRYPFCGILFNIDTLFFRFLLVHIWLPFFCTYLYPYLLPFHWA", "transcriptional activation domain activity": 74200}, {"sequence": "RRGSKGKQRASGNRGPGGSGGSRGWGQRTASHGKAGKGTGKRSGSNSGSHGES", "transcriptional activation domain activity": 37100}, {"sequence": "KLRHRLEDEKEANFFRAIIHFTGLRLPQARSKPVNVVRGILLVLCQLVQFSGR", "transcriptional activation domain activity": 57100}, {"sequence": "DSLFFDHDLLSSSITNTNNGQGSNNGRQASKDDTLNLLDTTVNSNNNHNANNE", "transcriptional activation domain activity": 32900}, {"sequence": "MIIFFFFFFLLCHWINTGIIFHVLDLMVKFLFFIFVDQQKKLSLLLFIHFAWL", "transcriptional activation domain activity": 54700}, {"sequence": "RKDRKDRTRKERRDRHDDGRRHRHRRSSRSRSRDRRDRKHDRSRSRDRRKDGD", "transcriptional activation domain activity": 9360}, {"sequence": "VRVRVRVQGREQVQVQVRELHPEQGHPHQEQEPLHLAREHHPELHQQKDQEHL", "transcriptional activation domain activity": 52900}, {"sequence": "RGRRKWNWTVVLYFACRVTTLAAAVTQMTGFNFTSEISCKTWLILTRIFTNTS", "transcriptional activation domain activity": 48200}, {"sequence": "KIHLLPTGVHQWNLKVKDLIHCLKLFHYAEIMYALSIVPLKAAIIFQCLRVFV", "transcriptional activation domain activity": 47200}, {"sequence": "IVNFTLLVLIVPRLSIWCRPHSKRMHGAGVWDSFVLARASIFVSVLGVLCVAL", "transcriptional activation domain activity": 54400}, {"sequence": "TQATIVGDFFVCLMDVAGHDLAILLINWRAQTGTWLIFDSLEPLMWPHRITLV", "transcriptional activation domain activity": 40300}, {"sequence": "IPIQLGCMHLHSPWMTYALLYQLIYPMMMIYNLVNCIYFGTGTQMLWWMVSIV", "transcriptional activation domain activity": 73000}, {"sequence": "SLLLPQQPVFVSENVGSEFSSLNEFLSMLENPLLTQTSLSSSSASNVHLENGS", "transcriptional activation domain activity": 98100}, {"sequence": "MTLLVGYLGVFFLLFSSPSLLEFFFFVTYRVFVVFFFSSSFFFLGYPVFFFFF", "transcriptional activation domain activity": 36600}, {"sequence": "KAAPAQDGAAAGERNGAEAAEAGEEEEEAEGEAAAEPGAEAAEKPAPKPAAAA", "transcriptional activation domain activity": 42100}, {"sequence": "GWVVILSSRCRIKTSVSRERLKMDVFWLIESIGLTVEYWRIVWDLRATYHFLR", "transcriptional activation domain activity": 33000}, {"sequence": "FLLGVFVCLVNLREWWMVDRGPRIMMGEFGKVLSVRMRFALTLHFREQVHVNH", "transcriptional activation domain activity": 48800}, {"sequence": "APPEGGDKSESKEPPKKEESAPTEAKPAEPKEENKPEAKQASNKETKPESSKP", "transcriptional activation domain activity": 23300}]}]}
